In patent publication US20240218346A1, “PHOSPHOKETOLASE VARIANTS AND METHODS OF USE” (Genomatica, Inc., priority 2021, published 2024) one finds Km, kcat and kcat/Km data, which are given here for six proteins.

B1: Bifidobacterium adolescentis fructose-6-phosphate phosphoketolase (H2, SEQ ID NO: 1) variant H239R (Bifidobacterium adolescentis ATCC 15703; H238R) (protein)
chain: MMTSPVIGTPWKKLNAPVSEEAIEGVDKYWRAANYLSIGQIYLRSNPLMKEPFTREDVKHRLVGHWGTTPGLNFLIGHINRLIADHQQNTVIIMGPGHGGPAGTAQSYLDGTYTEYFPNITKDEAGLQKFFRQFSYPGGIPSHYAPETPGSIHEGGELGYALSHAYGAVMNNPSLFVPAIVGDGEAETGPLATGWQSNKLINPRTDGIVLPILHLNGYKIANPTILSRISDEELHEFFRGMGYEPYEFVAGFDNEDHLSIHRRFAELFETVFDEICDIKAAAQTDDMTRPFYPMIIFRTPKGWTCPKFIDGKKTEGSWRSHQVPLASARDTEAHFEVLKNWLESYKPEELFDENGAVKPEVTAFMPTGELRIGENPNANGGRIREELKLPKLEDYEVKEVAEYGHGWGQLEATRRLGVYTRDIIKNNPDSFRIFGPDETASNRLQAAYDVTNKQWDAGYLSAQVDEHMAVTGQVTEQLSEHQMEGFLEGYLLTGRHGIWSSYESFVHVIDSMLNQHAKWLEATVREIPWRKPISSMNLLVSSHVWRQDHNGFSHQDPGVTSVLLNKCFNNDHVIGIYFPVDSNMLLAVAEKCYKSTNKINAIIAGKQPAATWLTLDEARAELEKGAAEWKWASNVKSNDEAQIVLAATGDVPTQEIMAAADKLDAMGIKFKVVNVVDLVKLQSAKENNEALSDEEFAELFTEDKPVLFAYHSYARDVRGLIYDRPNHDNFNVHGYEEQGSTTTPYDMVRVNNIDRYELQAEALRMIDADKYADKINELEAFRQEAFQFAVDNGYDHPDYTDWVYSGVNTNKQGAISATAATAGDNE
B2: Bifidobacterium adolescentis fructose-6-phosphate phosphoketolase (H2, SEQ ID NO: 1) variant Q759L (Bifidobacterium adolescentis ATCC 15703; Q758L) (protein)
chain: MMTSPVIGTPWKKLNAPVSEEAIEGVDKYWRAANYLSIGQIYLRSNPLMKEPFTREDVKHRLVGHWGTTPGLNFLIGHINRLIADHQQNTVIIMGPGHGGPAGTAQSYLDGTYTEYFPNITKDEAGLQKFFRQFSYPGGIPSHYAPETPGSIHEGGELGYALSHAYGAVMNNPSLFVPAIVGDGEAETGPLATGWQSNKLINPRTDGIVLPILHLNGYKIANPTILSRISDEELHEFFHGMGYEPYEFVAGFDNEDHLSIHRRFAELFETVFDEICDIKAAAQTDDMTRPFYPMIIFRTPKGWTCPKFIDGKKTEGSWRSHQVPLASARDTEAHFEVLKNWLESYKPEELFDENGAVKPEVTAFMPTGELRIGENPNANGGRIREELKLPKLEDYEVKEVAEYGHGWGQLEATRRLGVYTRDIIKNNPDSFRIFGPDETASNRLQAAYDVTNKQWDAGYLSAQVDEHMAVTGQVTEQLSEHQMEGFLEGYLLTGRHGIWSSYESFVHVIDSMLNQHAKWLEATVREIPWRKPISSMNLLVSSHVWRQDHNGFSHQDPGVTSVLLNKCFNNDHVIGIYFPVDSNMLLAVAEKCYKSTNKINAIIAGKQPAATWLTLDEARAELEKGAAEWKWASNVKSNDEAQIVLAATGDVPTQEIMAAADKLDAMGIKFKVVNVVDLVKLQSAKENNEALSDEEFAELFTEDKPVLFAYHSYARDVRGLIYDRPNHDNFNVHGYEEQGSTTTPYDMVRVNNIDRYELLAEALRMIDADKYADKINELEAFRQEAFQFAVDNGYDHPDYTDWVYSGVNTNKQGAISATAATAGDNE
B3: Bifidobacterium adolescentis fructose-6-phosphate phosphoketolase (H2, SEQ ID NO: 1) variant M483C (Bifidobacterium adolescentis ATCC 15703; M482C) (protein)
chain: MMTSPVIGTPWKKLNAPVSEEAIEGVDKYWRAANYLSIGQIYLRSNPLMKEPFTREDVKHRLVGHWGTTPGLNFLIGHINRLIADHQQNTVIIMGPGHGGPAGTAQSYLDGTYTEYFPNITKDEAGLQKFFRQFSYPGGIPSHYAPETPGSIHEGGELGYALSHAYGAVMNNPSLFVPAIVGDGEAETGPLATGWQSNKLINPRTDGIVLPILHLNGYKIANPTILSRISDEELHEFFHGMGYEPYEFVAGFDNEDHLSIHRRFAELFETVFDEICDIKAAAQTDDMTRPFYPMIIFRTPKGWTCPKFIDGKKTEGSWRSHQVPLASARDTEAHFEVLKNWLESYKPEELFDENGAVKPEVTAFMPTGELRIGENPNANGGRIREELKLPKLEDYEVKEVAEYGHGWGQLEATRRLGVYTRDIIKNNPDSFRIFGPDETASNRLQAAYDVTNKQWDAGYLSAQVDEHMAVTGQVTEQLSEHQCEGFLEGYLLTGRHGIWSSYESFVHVIDSMLNQHAKWLEATVREIPWRKPISSMNLLVSSHVWRQDHNGFSHQDPGVTSVLLNKCFNNDHVIGIYFPVDSNMLLAVAEKCYKSTNKINAIIAGKQPAATWLTLDEARAELEKGAAEWKWASNVKSNDEAQIVLAATGDVPTQEIMAAADKLDAMGIKFKVVNVVDLVKLQSAKENNEALSDEEFAELFTEDKPVLFAYHSYARDVRGLIYDRPNHDNFNVHGYEEQGSTTTPYDMVRVNNIDRYELQAEALRMIDADKYADKINELEAFRQEAFQFAVDNGYDHPDYTDWVYSGVNTNKQGAISATAATAGDNE
B4: Bifidobacterium adolescentis fructose-6-phosphate phosphoketolase (H2, SEQ ID NO: 1) variant Y804W (Bifidobacterium adolescentis ATCC 15703; Y803W) (protein)
chain: MMTSPVIGTPWKKLNAPVSEEAIEGVDKYWRAANYLSIGQIYLRSNPLMKEPFTREDVKHRLVGHWGTTPGLNFLIGHINRLIADHQQNTVIIMGPGHGGPAGTAQSYLDGTYTEYFPNITKDEAGLQKFFRQFSYPGGIPSHYAPETPGSIHEGGELGYALSHAYGAVMNNPSLFVPAIVGDGEAETGPLATGWQSNKLINPRTDGIVLPILHLNGYKIANPTILSRISDEELHEFFHGMGYEPYEFVAGFDNEDHLSIHRRFAELFETVFDEICDIKAAAQTDDMTRPFYPMIIFRTPKGWTCPKFIDGKKTEGSWRSHQVPLASARDTEAHFEVLKNWLESYKPEELFDENGAVKPEVTAFMPTGELRIGENPNANGGRIREELKLPKLEDYEVKEVAEYGHGWGQLEATRRLGVYTRDIIKNNPDSFRIFGPDETASNRLQAAYDVTNKQWDAGYLSAQVDEHMAVTGQVTEQLSEHQMEGFLEGYLLTGRHGIWSSYESFVHVIDSMLNQHAKWLEATVREIPWRKPISSMNLLVSSHVWRQDHNGFSHQDPGVTSVLLNKCFNNDHVIGIYFPVDSNMLLAVAEKCYKSTNKINAIIAGKQPAATWLTLDEARAELEKGAAEWKWASNVKSNDEAQIVLAATGDVPTQEIMAAADKLDAMGIKFKVVNVVDLVKLQSAKENNEALSDEEFAELFTEDKPVLFAYHSYARDVRGLIYDRPNHDNFNVHGYEEQGSTTTPYDMVRVNNIDRYELQAEALRMIDADKYADKINELEAFRQEAFQFAVDNGYDHPDYTDWVWSGVNTNKQGAISATAATAGDNE
B5: Bifidobacterium adolescentis fructose-6-phosphate phosphoketolase (H2, SEQ ID NO: 1) variant H257P (Bifidobacterium adolescentis ATCC 15703; H256P) (protein)
chain: MMTSPVIGTPWKKLNAPVSEEAIEGVDKYWRAANYLSIGQIYLRSNPLMKEPFTREDVKHRLVGHWGTTPGLNFLIGHINRLIADHQQNTVIIMGPGHGGPAGTAQSYLDGTYTEYFPNITKDEAGLQKFFRQFSYPGGIPSHYAPETPGSIHEGGELGYALSHAYGAVMNNPSLFVPAIVGDGEAETGPLATGWQSNKLINPRTDGIVLPILHLNGYKIANPTILSRISDEELHEFFHGMGYEPYEFVAGFDNEDPLSIHRRFAELFETVFDEICDIKAAAQTDDMTRPFYPMIIFRTPKGWTCPKFIDGKKTEGSWRSHQVPLASARDTEAHFEVLKNWLESYKPEELFDENGAVKPEVTAFMPTGELRIGENPNANGGRIREELKLPKLEDYEVKEVAEYGHGWGQLEATRRLGVYTRDIIKNNPDSFRIFGPDETASNRLQAAYDVTNKQWDAGYLSAQVDEHMAVTGQVTEQLSEHQMEGFLEGYLLTGRHGIWSSYESFVHVIDSMLNQHAKWLEATVREIPWRKPISSMNLLVSSHVWRQDHNGFSHQDPGVTSVLLNKCFNNDHVIGIYFPVDSNMLLAVAEKCYKSTNKINAIIAGKQPAATWLTLDEARAELEKGAAEWKWASNVKSNDEAQIVLAATGDVPTQEIMAAADKLDAMGIKFKVVNVVDLVKLQSAKENNEALSDEEFAELFTEDKPVLFAYHSYARDVRGLIYDRPNHDNFNVHGYEEQGSTTTPYDMVRVNNIDRYELQAEALRMIDADKYADKINELEAFRQEAFQFAVDNGYDHPDYTDWVYSGVNTNKQGAISATAATAGDNE
B6: Bifidobacterium adolescentis fructose-6-phosphate phosphoketolase (H2, SEQ ID NO: 1) variant C567S (Bifidobacterium adolescentis ATCC 15703; C566S) (protein)
chain: MMTSPVIGTPWKKLNAPVSEEAIEGVDKYWRAANYLSIGQIYLRSNPLMKEPFTREDVKHRLVGHWGTTPGLNFLIGHINRLIADHQQNTVIIMGPGHGGPAGTAQSYLDGTYTEYFPNITKDEAGLQKFFRQFSYPGGIPSHYAPETPGSIHEGGELGYALSHAYGAVMNNPSLFVPAIVGDGEAETGPLATGWQSNKLINPRTDGIVLPILHLNGYKIANPTILSRISDEELHEFFHGMGYEPYEFVAGFDNEDHLSIHRRFAELFETVFDEICDIKAAAQTDDMTRPFYPMIIFRTPKGWTCPKFIDGKKTEGSWRSHQVPLASARDTEAHFEVLKNWLESYKPEELFDENGAVKPEVTAFMPTGELRIGENPNANGGRIREELKLPKLEDYEVKEVAEYGHGWGQLEATRRLGVYTRDIIKNNPDSFRIFGPDETASNRLQAAYDVTNKQWDAGYLSAQVDEHMAVTGQVTEQLSEHQMEGFLEGYLLTGRHGIWSSYESFVHVIDSMLNQHAKWLEATVREIPWRKPISSMNLLVSSHVWRQDHNGFSHQDPGVTSVLLNKSFNNDHVIGIYFPVDSNMLLAVAEKCYKSTNKINAIIAGKQPAATWLTLDEARAELEKGAAEWKWASNVKSNDEAQIVLAATGDVPTQEIMAAADKLDAMGIKFKVVNVVDLVKLQSAKENNEALSDEEFAELFTEDKPVLFAYHSYARDVRGLIYDRPNHDNFNVHGYEEQGSTTTPYDMVRVNNIDRYELQAEALRMIDADKYADKINELEAFRQEAFQFAVDNGYDHPDYTDWVYSGVNTNKQGAISATAATAGDNE

Substrate in this data set: O=P(O)(O)OC[C@H]1OC(O)(CO)[C@@H](O)[C@@H]1O
Kind of data set: Kinetics, E4PDH based colorimetric assay for FPK activity (F6P). The format is biochemical, Bifidobacterium adolescentis. Particulars: other: F6P. The source says:
Mutagenesis techniques were used to generate engineered phosphoketolases based on one of two template phosphoketolases (the fructose-6-phosphate phosphoketolase from Bifidobacterium adolescentis (strain ATCC 15703 DSM 20083 NCTC 11814 E194a) (“H2”; UniProtKB Accession No. A1A185_BIFAA; SEQ ID NOs: 1 and 3) orthe xylulose-5-phosphate/fructose-6-phosphate phosphoketolase from Collinsella aerofaciens (“D3”; UniProt KB Accession No. A0A174LGR4_9ACTN; SEQ ID NOs: 2 and 4)). Engineered phosphoketolase were generated using rational protein engineering. Structural homology models were constructed for H2 and D3. The substrate docking with Xu5P and F6P were also performed. In total, 2000 variants were designed. There are 1031 constructs designed based on H2, and 969 based on D3. 1999 constructs were received from DNA synthesis. The variants were then tested for XPK and/or FPK activity in in vitro primary and secondary screens as described below.
Further biochemical characterization of selected variants was conducted and the FPK activity of these variants were assessed. 12 hits were selected from the secondary screening results of the phosphoketolase library screen for in vitro biochemical characterization. All 12 of the hits selected are variants based on SEQ ID NO: 1. The kinetics parameters measured during biochemical characterization are summarized below in Table 5. The FPK kinetics assay was based on the E4PDH based Colorimetric Assay described herein for the 12 hits and the two controls (SEQ ID NO: 1 and SEQ ID NO: 2).
The product of FPK is coupled to NADH production via a one-step enzymatic reaction of its product with E4PDH. NADH production overtime was measured by absorbance at 340 nm. The reactions are listed below.
5 μL of half diluted cell lysate was added into 45 μL of reaction buffer. The reaction buffer contained an approximate amount of E4PDH enzyme, 1 mM NADH and 5 mM F6P as substrate for primary screening. 2 mM F6P was used for secondary screening. The reaction was recorded for a 10-min kinetics reading at 340 nm at room temperature.
As a reminder, the Km is the substrate concentration at which the rate is half of its maximum. Broadly, the kcat is the number of substrate molecules converted per active site and unit of time at saturation. A word on the kcat/Km: it is the second-order rate constant that governs catalysis at low substrate concentration. Consider B1, for which the Km turned out to be 2432 µM, the kcat is 57.9 s⁻¹ and the kcat/Km was 23800 M⁻¹ s⁻¹.

Regarding B2, the Km came out at 3596 µM, the kcat was found to be 35.6 s⁻¹ and the kcat/Km was determined as 9890 M⁻¹ s⁻¹.

Regarding B3, the Km worked out at 2299 µM, the kcat was 34 s⁻¹ and the kcat/Km amounted to 14800 M⁻¹ s⁻¹.

Turning to B4, the Km turned out to be 2860 µM, the kcat was 30.8 s⁻¹ and the kcat/Km worked out at 10800 M⁻¹ s⁻¹.

In the case of B5, the Km stood at 2422 µM, the kcat worked out at 25 s⁻¹ and the kcat/Km is 10300 M⁻¹ s⁻¹.

In the case of B6, the Km was determined as 3046 µM, the kcat was 26.4 s⁻¹ and the kcat/Km is 8660 M⁻¹ s⁻¹.
